Values of other authors in publication PMC9066409.
Where two headings read alike, the source gives them in different places.

What was measured:
[1] = target: FGFR1 (Homo sapiens) (UniProt P11362)
[2] = target: FGFR1 (Homo sapiens) (UniProt P11362); remark: listed apart in the source

UniProt P11362, sequence (P11362 22-822): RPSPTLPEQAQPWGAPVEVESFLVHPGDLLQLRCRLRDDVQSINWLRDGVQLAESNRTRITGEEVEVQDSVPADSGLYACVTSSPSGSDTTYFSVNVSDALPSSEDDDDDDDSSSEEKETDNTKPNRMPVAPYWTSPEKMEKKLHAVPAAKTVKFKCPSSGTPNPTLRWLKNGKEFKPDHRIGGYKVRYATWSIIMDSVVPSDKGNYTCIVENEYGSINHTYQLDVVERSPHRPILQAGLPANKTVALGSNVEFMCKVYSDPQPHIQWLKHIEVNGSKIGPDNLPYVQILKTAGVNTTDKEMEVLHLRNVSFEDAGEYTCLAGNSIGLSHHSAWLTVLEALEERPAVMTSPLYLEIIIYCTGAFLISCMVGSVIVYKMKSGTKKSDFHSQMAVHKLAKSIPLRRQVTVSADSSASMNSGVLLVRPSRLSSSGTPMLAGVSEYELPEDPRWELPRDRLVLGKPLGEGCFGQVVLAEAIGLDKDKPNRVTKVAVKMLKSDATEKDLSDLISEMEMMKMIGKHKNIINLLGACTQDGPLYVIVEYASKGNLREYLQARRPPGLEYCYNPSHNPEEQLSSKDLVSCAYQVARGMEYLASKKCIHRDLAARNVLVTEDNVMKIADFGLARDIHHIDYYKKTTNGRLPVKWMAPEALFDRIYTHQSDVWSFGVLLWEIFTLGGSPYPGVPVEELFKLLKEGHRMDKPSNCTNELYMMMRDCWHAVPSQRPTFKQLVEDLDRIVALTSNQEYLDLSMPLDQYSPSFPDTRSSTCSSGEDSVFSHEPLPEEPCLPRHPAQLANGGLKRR

Substance | Kd [1] [nM] | Kd [2] [nM]
FGF2 (from UniProt P09038) | 62 | 
FGF1 (from UniProt P05230) |  | 136
